Here are results for one molecule from article PMC5942583 (Nature structural & molecular biology, 2018).

This experiment deals with 15N-labeled WT 2N4R tau (microtubule-associated protein tau, longest adult isoform) (human, UniProt P10636-8 1-441, 15N-labeled). The experiment can be described thus: NMR titration.

B1: DnaJA2 (natural protein)
chain: not shown
On to B1, for which the binding result is “binds”.
